Data as given in article PMC9902482 (2023).
Values joined by “and” are separate entries in the source; they are usually repeats but may differ in a detail not shown here. Identical values can stand only once.

T1: Lec domain of ADGRL3 (human, UniProt Q9HAR2 24-126, biotin on the Avi-tag (BirA) in the flow cytometry experiments)
T1 chain: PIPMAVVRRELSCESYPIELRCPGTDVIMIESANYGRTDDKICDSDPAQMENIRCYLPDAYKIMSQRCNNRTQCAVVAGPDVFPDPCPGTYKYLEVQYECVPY

B1: full-length extracellular region (ECR) of ADGRL3 (domain or fragment)
chain 1: FSRAPIPMAVVRRELSCESYPIELRCPGTDVIMIESANYGRTDDKICDSDPAQMENIRCYLPDAYKIMSQRCNNRTQCAVVAGPDVFPDPCPGTYKYLEVQYECVPYKVEQKVFLCPGLLKGVYQSEHLFESDHQSGAWCKDPLQASDKIYYMPWTPYRTDTLTEYSSKDDFIAGRPTTTYKLPHRVDGTGFVVYDGALFFNKERTRNIVKFDLRTRIKSGEAIIANANYHDTSPYRWGGKSDIDLAVDENGLWVIYATEQNNGKIVISQLNPYTLRIEGTWDTAYDKRSASNAFMICGILYVVKSVYEDDDNEATGNKIDYIYNTDQSKDSLVDVPFPNSYQYIAAVDYNPRDNLLYVWNNYHVVKYSLDFGPLDSRSGQAHHGQVSYISPPIHLDSELERPSVKDISTTGPLGMGSTTTSTTLRTTTLSPGRSTTPSVSGRRNRSTSTPSPAVEVLDDMTTHLPSASSQIPALEESCEAVEAREIMWFKTRQGQIAKQPCPAGTIGVSTYLCLAPDGIWDPQGPDLSNCSSPWVNHITQKLKSGETAANIARELAEQTRNHLNAGDITYSVRAMDQLVGLLDVQLRNLTPGGKDSAARSLNKAMVETVNNLLQPQALNAWRDLTTSDQLRAATMLLHTVEESAFVLADNLLKTDIVRENTDNIKLEVARLSTEGNLEDLKFPENMGHGSTIQLSANTLKQNGRNGEIRVAFVLYNNLGPYLSTENASMKLGTEALSTNHSVIVNSPVITAAINKEFSNKVYLADPVVFTVKHIKQSEENFNPNCSFWSYSKRTMTGYWSTQGCRLLTTNKTHTTCSCNHL
chain 2: TNFAVLMAHVEVKHSDAVHDL
modifications: biotin on the Avi-tag (BirA) where used biotinylated
B2: ADGRL3 Lec/Olf fragment (domain or fragment)
chain: PIPMAVVRRELSCESYPIELRCPGTDVIMIESANYGRTDDKICDSDPAQMENIRCYLPDAYKIMSQRCNNRTQCAVVAGPDVFPDPCPGTYKYLEVQYECVPYKVEQKVFLCPGLLKGVYQSEHLFESDHQSGAWCKDPLQASDKIYYMPWTPYRTDTLTEYSSKDDFIAGRPTTTYKLPHRVDGTGFVVYDGALFFNKERTRNIVKFDLRTRIKSGEAIIANANYHDTSPYRWGGKSDIDLAVDENGLWVIYATEQNNGKIVISQLNPYTLRIEGTWDTAYDKRSASNAFMICGILYVVKSVYEDDDNEATGNKIDYIYNTDQSKDSLVDVPFPNSYQYIAAVDYNPRDNLLYVWNNYHVVKYSLDFGPLD

Legend:
[1] = biological target: B1; assay: SPR
[2] = biological target: B2; assay: SPR
[3] = biological target: B1; assay: SPR
[4] = biological target: T1, Lec domain of ADGRL3; assay: SPR
[5] = biological target: B2; assay: SPR
[6] = biological target: LK12; assay: SPR
[7] = biological target: LK31; assay: SPR
[8] = biological target: LK29; assay: SPR
[9] = biological target: LK25; assay: ELISA

Kd [1] | Kd [2] | koff [3] | koff [4] | koff [5] | Kd [6] | koff [6] | Kd [7] | koff [7] | Kd [8] | koff [8] | Kd [9] | Binder
4.2 nM | 5.4 nM and 3.7 nM | 0.0058 s⁻¹ | 0.0113 s⁻¹ | 0.0066 s⁻¹ and 0.0049 s⁻¹ | – | – | – | – | – | – | – | synthetic antibody fragment (sAB) LK30 (Fab, V domains shown) VH: EVQLVESGGGLVQPGGSLRLSCAASGFNIYYSSIHWVRQAPGKGLEWVAYISPYSGSTSYADSVKGRFTISADTSKNTAYLQMNSLRAEDTAVYYCARYKYGQGHMGAFDYWGQGTLVTVSS VL: DIQMTQSPSSLSASVGDRVTITCRASQSVSSAVAWYQQKPGKAPKLLIYSASSLYSGVPSRFSGSRSGTDFTLTISSLQPEDFATYYCQQSNTELVTFGQGTKVEIK
– | – | – | – | – | 8.3 nM | 0.0032 s⁻¹ | 3.8 nM | 0.002 s⁻¹ | 4.1 nM | 0.0015 s⁻¹ | 56.8 nM | B1
– | – | – | – | – | 12.5 nM | 0.0099 s⁻¹ | 3.6 nM | 0.0029 s⁻¹ | 2.5 nM | 0.001 s⁻¹ | – | B2
